Measurements published in patent US9453061B2, “Method and compositions for treatment of calcineurin-related diseases” (BROWN UNIVERSITY, priority 2014, dated 2016).
Each block holds one molecule with its values, some of them ahead of it.

Target: T1, calcineurin (Homo sapiens, UniProt Q08209)
T1 construct: made in house
Assay: Isothermal titration calorimetry (ITC) of RCAN1 constructs with calcineurin
Format: binding
Procedure: Only RCAN1^89-197 (SEQ ID NO: 2) was labeled with NMR active nuclei; calcineurin was unlabeled. […] See, FIG. 2.
Affinity of each RCAN1 construct for calcineurin was measured using ITC to determine the individual contribution of each motif to binding. […] See, FIG. 2A.
The CNB subunit was analyzed to determine whether the subunit influences binding by generating a construct of only the calcineurin catalytic domain, CNAcat containing residues 1-348, and identical to a previously characterized CNA construct. See, Takeuchi et al., Structure 15, 587-97 (2007).
To determine how the TxxP (SEQ ID NO: 11) motif binds and engages calcineurin, the residues within and surrounding the TxxP (SEQ ID NO: 11) motif were mutated (i.e. K182A/E, Q185A, E190R/A, Y191A) and ITC was used to quantify which residues are most critical for calcineurin binding. ITC was used to determine whether the TxxP (SEQ ID NO: 11) motif binds only the CNA catalytic domain, or also requires CNB for binding using RCAN1^128-197, without requiring the LxVP (SEQ ID NO: 10) motif. Calcineurin active site residues were mutated as follows: R122A/D, H151A, D118A, R254A/D; and the change in affinity was quantified.

T1 sequence (Q08209 1-391 limits assumed): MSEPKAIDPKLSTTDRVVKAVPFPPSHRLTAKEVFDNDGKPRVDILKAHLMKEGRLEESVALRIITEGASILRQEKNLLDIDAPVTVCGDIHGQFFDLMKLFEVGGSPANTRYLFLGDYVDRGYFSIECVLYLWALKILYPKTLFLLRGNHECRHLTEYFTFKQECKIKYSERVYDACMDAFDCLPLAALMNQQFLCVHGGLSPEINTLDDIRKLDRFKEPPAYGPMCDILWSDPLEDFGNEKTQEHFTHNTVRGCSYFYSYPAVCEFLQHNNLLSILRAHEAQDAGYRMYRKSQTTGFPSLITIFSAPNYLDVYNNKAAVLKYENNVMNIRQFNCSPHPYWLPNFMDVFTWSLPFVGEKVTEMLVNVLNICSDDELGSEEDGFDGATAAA
T1 sequence (P63098 whole entry partner): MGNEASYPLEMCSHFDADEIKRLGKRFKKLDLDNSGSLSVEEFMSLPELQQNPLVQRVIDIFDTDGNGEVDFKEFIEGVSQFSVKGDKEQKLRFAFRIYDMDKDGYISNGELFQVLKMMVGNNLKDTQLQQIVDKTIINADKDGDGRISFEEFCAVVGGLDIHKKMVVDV

Kd: ~300 nM
Molecule: RCAN1^128-192: within SEQ ID NO: 2; includes RCAN1^128-164 and the TxxP site

binding to calcineurin (in words): does not interact directly
B1: RNA-binding domain (amino acid positions 1-88): structured N-terminal RNA-binding domain of RCAN1, amino acid positions 1-88 (protein, UniProt P53805 1-88, looked up, fragment)
chain: MEDGVAGPQLGAAAEAAEAAEARARPGVTLRPFAPLSGAAEADEGGGDWSFIDCEMEEVDLQDLPSATIACHLDPRVFVDGLCRAKFE
